Assay results as given in FireProtDB (doi:10.1016/0022-2836(82)90184-x).

Conditions: Escherichia coli (strain K12), 25 °C, GdnHCl, CD, reversible: yes, whole UniProt chain shown

B1: Tryptophan synthase alpha chain wild type, P0A877 (protein)
chain: MERYESLFAQLKERKEGAFVPFVTLGDPGIEQSLKIIDTLIEAGADALELGIPFSDPLADGPTIQNATLRAFAAGVTPAQCFEMLALIRQKHPTIPIGLLMYANLVFNKGIDEFYAQCEKVGVDSVLVADVPVEESAPFRQAALRHNVAPIFICPPNADDDLLRQIASYGRGYTYLLSRAGVTGAENRAALPLNHLVAKLKEYNAAPPLQGFGISAPDQVKAAIDAGAAGAISGSAIVKIIEQHINEPEKMLAALKVFVQPMKAATRS
unfolding free energy (pH 5.5, acetate 0.05 M): 5.2 kcal/mol | unfolding free energy (pH 7, Potassium phosphate 0.01 M): 8.8 kcal/mol | unfolding free energy (pH 9, Tris-HCl 0.025 M): 4.9 kcal/mol
